Like-named read-outs stand apart in the source and are kept apart here.

Test [1] concerns the target T1, N-terminally FLAG-tagged mouse Ang2 (HEK293T conditioned medium) (mouse, UniProt O35608 19-496).
T1 construct: may be a nucleotide entry; also called mAng2; FLAG-mAng2
T1 sequence: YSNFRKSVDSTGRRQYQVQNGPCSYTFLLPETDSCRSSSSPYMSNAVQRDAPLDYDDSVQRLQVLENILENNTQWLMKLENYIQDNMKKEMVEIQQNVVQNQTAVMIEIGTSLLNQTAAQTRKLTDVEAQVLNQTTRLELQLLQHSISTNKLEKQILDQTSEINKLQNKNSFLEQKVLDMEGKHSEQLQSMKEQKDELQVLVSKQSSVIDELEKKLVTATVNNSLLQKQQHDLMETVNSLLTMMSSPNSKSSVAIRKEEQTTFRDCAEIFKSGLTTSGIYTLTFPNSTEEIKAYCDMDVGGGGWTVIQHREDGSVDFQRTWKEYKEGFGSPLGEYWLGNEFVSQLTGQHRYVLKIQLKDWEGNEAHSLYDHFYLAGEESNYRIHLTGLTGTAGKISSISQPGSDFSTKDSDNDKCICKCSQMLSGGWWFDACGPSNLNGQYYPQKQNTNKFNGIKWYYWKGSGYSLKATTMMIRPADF
The experiment in a line: competition ELISA, FLAG-mAng2 on coated mTie2-Fc. On the procedure: (§1) In brief, 2 μg/mL of recombinant mouse Tie2-Fc or cyno Tie2-Fc is coated overnight at 4° C. in a 96-well MaxiSorp plate (Nunc, Wiesbaden, Germany). Coated wells are blocked with a 1% casein solution.
(In general: An ELISA detects its analyte on a solid surface through an enzyme-linked reagent.)

Test [2] concerns the target T2, N-terminally FLAG-tagged cynomolgus Ang2 (HEK293T conditioned medium) (cynomolgus, UniProt O15123 19-496 (human entry), limits assumed).
T2 construct: may be a nucleotide entry; also called cAng2; FLAG-cAng2
T2 chain: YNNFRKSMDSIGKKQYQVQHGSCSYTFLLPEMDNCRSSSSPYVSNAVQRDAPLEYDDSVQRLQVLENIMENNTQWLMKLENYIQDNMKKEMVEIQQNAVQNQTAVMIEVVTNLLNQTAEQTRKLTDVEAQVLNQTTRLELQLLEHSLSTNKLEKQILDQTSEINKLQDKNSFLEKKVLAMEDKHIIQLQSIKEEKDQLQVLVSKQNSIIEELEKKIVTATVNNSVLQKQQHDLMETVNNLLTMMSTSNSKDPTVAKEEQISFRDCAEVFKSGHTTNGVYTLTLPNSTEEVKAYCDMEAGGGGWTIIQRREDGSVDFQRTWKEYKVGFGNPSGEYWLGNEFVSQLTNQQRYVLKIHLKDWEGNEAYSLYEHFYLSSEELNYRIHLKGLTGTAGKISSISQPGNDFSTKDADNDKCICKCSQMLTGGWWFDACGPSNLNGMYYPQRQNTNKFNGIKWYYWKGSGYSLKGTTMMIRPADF
Nature of the test: competition ELISA, FLAG-cAng2 on coated cTie2-Fc. On the procedure:
as §1

For test [3], the target named is T1, N-terminally FLAG-tagged mouse Ang2 …. Nature of the test: competition ELISA, FLAG-mAng2 on coated mTie2-Fc. The protocol: as §1
The source holds these as a separate data set.

In test [4] the target is T3, FLAG-tagged recombinant human Ang1 (Alexis Biochemicals) (human, UniProt Q15389 20-498, limits assumed).
T3 construct: Bought reagent; also called hAng1; FLAG-hAng1
T3 sequence (looked up): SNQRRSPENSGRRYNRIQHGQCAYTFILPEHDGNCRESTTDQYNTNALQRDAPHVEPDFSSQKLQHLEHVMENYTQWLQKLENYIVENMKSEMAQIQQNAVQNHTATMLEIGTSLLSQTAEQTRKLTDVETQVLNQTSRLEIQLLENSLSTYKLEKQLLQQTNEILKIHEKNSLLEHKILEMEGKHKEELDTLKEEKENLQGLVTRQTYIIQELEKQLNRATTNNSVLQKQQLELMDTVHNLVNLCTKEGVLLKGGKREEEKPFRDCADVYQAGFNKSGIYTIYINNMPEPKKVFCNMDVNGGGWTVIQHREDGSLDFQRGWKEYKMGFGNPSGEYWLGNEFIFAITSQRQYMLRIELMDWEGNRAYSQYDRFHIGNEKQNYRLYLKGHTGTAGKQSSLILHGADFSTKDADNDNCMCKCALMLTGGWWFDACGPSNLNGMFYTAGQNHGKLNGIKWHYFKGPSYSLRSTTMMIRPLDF
Nature of the test: competition ELISA, FLAG-hAng1 (0.02 nM) on coated hTie2-Fc. The protocol:
(§2) In brief, 2 μg/mL of recombinant human Tie2-Fc (R&D Systems, Minneapolis, Minn., USA) is coated overnight at 4° C. in a 96-well MaxiSorp plate (Nunc, Wiesbaden, Germany). Coated wells are blocked with a 1% casein solution.

Test [5] deals with T4, recombinant cynomolgus Ang2-FLD (cynomolgus).
T4 construct: domain: FLD; also called cyno Ang2-FLD
The experiment in a line: SPR (Biacore T100), binder on CM5 chip, Ang2-FLD as analyte. The method, boiled down: (§3)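 Binders were immobilized by amine coupling onto a CM5 sensor chip, and Ang2-FLD from each species was passed over as analyte at 45 μL/min, with 2 min association and 20 min dissociation. Surfaces were regenerated between injections using a 10 sec 25 mM NaOH pulse and 60 sec stabilization. Rate constants came from a 1:1 Langmuir fit, and KD was derived from them.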
Background: Surface plasmon resonance follows binding to a sensor surface in real time, without labels.

Test [6] addresses T5, recombinant human Ang2-FLD (human, UniProt O15123 275-496, limits assumed).
T5 construct: domain: FLD; not used
T5 sequence (looked up): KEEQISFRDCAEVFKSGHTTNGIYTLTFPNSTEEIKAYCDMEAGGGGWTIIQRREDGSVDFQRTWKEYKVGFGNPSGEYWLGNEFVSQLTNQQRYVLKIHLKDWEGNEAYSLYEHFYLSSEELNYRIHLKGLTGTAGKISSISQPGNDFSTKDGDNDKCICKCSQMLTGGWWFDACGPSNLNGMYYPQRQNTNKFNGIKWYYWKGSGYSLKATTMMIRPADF
The description is as above. Summed up: as §3

The target of test [7] is T6, recombinant mouse Ang2-FLD (mouse, UniProt O35608 275-496, limits assumed).
T6 construct: domain: FLD
T6 sequence (looked up): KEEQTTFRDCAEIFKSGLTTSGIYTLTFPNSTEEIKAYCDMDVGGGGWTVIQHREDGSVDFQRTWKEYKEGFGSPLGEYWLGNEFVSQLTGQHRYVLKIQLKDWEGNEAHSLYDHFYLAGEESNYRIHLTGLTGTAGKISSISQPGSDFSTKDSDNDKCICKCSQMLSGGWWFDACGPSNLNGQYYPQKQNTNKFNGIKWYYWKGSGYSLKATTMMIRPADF
The description is as above. The method, boiled down: as §3

Test [8] deals with T3, FLAG-tagged recombinant human Ang1 …. Nature of the test: ratio of IC50 in hAng1/hTie2 ELISA to IC50 in hAng2/hTie2 ELISA. On the procedure:
In brief, 2 μg/mL of Tie2/Fc chimera (R&D Systems, Minneapolis, Minn., USA) is coated in a 96-well MaxiSorp plate (Nunc, Wiesbaden, Germany).
as §2

B1: VHH 10H02 (VHH)
VHH: EVQLVESGGGSVQAGGSLRLSCAASGFTFDDYAIGWFRQAPGKEREGVSCISSSDGSTNYADSVKGRFTISSDTAKNTVYLQMNSLKPEDTAVYYCTAVPATRRTPQMVDANMCWLAEYEYDYWGQGTQVTVSS
notes: also called 010H02; not shown: C-terminal c-myc tag and His6 tag
One may read the IC50 as the concentration at which inhibition is half-maximal. The Kd is the free concentration of one partner at which half of the binding sites on the other are occupied at equilibrium, for simple one-to-one binding. In general, koff refers to the rate constant with which the complex falls apart. One may read the kon as a measure of how fast the partners come together. B1: the IC50 in test [1] stood at 5.2 nM; in test [2], 23.7 nM; in test [3], 21.4 nM; in test [4], 2000 nM. For the same molecule, the Kd was 3.4 nM in test [5], 3.6 nM in test [6] and 11 nM in test [7]. The koff in test [5] amounted to 0.023 s⁻¹; in test [6] it was 0.021 s⁻¹; in test [7], 0.026 s⁻¹. For the same molecule, the kon in test [5] amounted to 6.9e+06 M⁻¹ s⁻¹; in test [6] it was 5.7e+06 M⁻¹ s⁻¹; in test [7], 2.5e+06 M⁻¹ s⁻¹. Moreover, the hAng1/hAng2 ratio in test [8] is 230.

The record behind these values is patent publication US20230203146A1 (Boehringer Ingelheim, published 2023).
